Test results published in article PMC13270999, “Chronology of tRNA structural dynamics prior to and during interaction with a pseudouridine synthase”.

How the values were obtained:
[1] = target: GST-tagged full-length S. cerevisiae Pus4 (S. cerevisiae) (UniProt P48567); experiment: sucrose gradient ultracentrifugation; 10 uM purified GST-Pus4 with and without 10 uM total yeast tRNA, 30 min at room temperature; 10-30% sucrose step gradient in Buffer B (50 mM Tris-HCl pH 7.5, 100 mM KCl), SW 55 Ti, 4 h at 55,000 rpm; fractions read by SDS-PAGE; standards beta-amylase and carbonic anhydrase; apparent molecular …
GST-Pus4 [2] = target: T1, GST-Pus4 (Saccharomyces cerevisiae, UniProt P48567 1-403); experiment: smFRET / PIFE; 200 nM Pus4; BLI: 50 mM Tris-HCl pH 7.5, 100 mM KCl, 0.02% Tween-20, 30 °C; EMSA: 50 mM Tris-HCl pH 7.5, 100 mM KCl, 30 min room temperature, 8% native PAGE in TBE at 4 °C; settings: protein: recombinant; tags: N-terminal GST, Factor Xa site (pGEX-5X-3); tag not removed; label: 5' biotin; Cy3 at U4 C5; Cy5 at U41 C5; tRNA cloverleaf
GST-Pus4 [3] = target: T1, GST-Pus4; experiment: EMSA; 30 nM RNA; all bound at >=200 nM Pus4, 30 min; labelled form assumed; BLI: 50 mM Tris-HCl pH 7.5, 100 mM KCl, 0.02% Tween-20, 30 °C; EMSA: 50 mM Tris-HCl pH 7.5, 100 mM KCl, 30 min room temperature, 8% native PAGE in TBE at 4 °C; settings: protein: recombinant; tags: N-terminal GST, Factor Xa site (pGEX-5X-3); tag not removed; label: 5' biotin; Cy3 at U4 C5; Cy5 at U41 C5; tRNA cloverleaf

T1 sequence (P48567 whole entry): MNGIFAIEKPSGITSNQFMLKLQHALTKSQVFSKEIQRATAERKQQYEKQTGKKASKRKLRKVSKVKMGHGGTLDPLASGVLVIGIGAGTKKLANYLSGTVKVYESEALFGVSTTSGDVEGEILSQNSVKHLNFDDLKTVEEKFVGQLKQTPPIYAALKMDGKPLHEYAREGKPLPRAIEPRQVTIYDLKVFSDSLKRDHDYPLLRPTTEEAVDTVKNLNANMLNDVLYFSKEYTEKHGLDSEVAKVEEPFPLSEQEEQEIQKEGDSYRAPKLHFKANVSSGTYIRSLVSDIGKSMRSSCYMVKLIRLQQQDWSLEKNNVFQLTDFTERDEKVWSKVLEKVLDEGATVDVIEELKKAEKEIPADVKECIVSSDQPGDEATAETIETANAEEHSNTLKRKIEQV

## GST-tagged full-length S. cerevisiae Pus4 (from UniProt P48567 1-403) (enzyme)
[1]
  stoichiometry N: 2

B1: Ψ55 tRNA eMet(CAU), Cy3/Cy5 (structured_RNA)
RNA: GCUUCAGUAGCUCAGUAGGAAGAGCGUCAGUCUCAUAAUCUGAAGGUCGAGAGUUCGAACCUCCCCUGGAGCACCA
modifications: pseudouridine at position 55 (second U of GAGAGUUCGAA)
GST-Pus4 [2]
  binding result: binds

B2: U55 tRNA eMet(CAU), Cy3/Cy5 (structured_RNA)
RNA: GCUUCAGUAGCUCAGUAGGAAGAGCGUCAGUCUCAUAAUCUGAAGGUCGAGAGUUCGAACCUCCCCUGGAGCACCA
GST-Pus4 [3]
  binding result: binds
